Data reported in paper PMC3107735.

Target: bovine α-thrombin (bovine)
Test: SPR

Kd: 1.7 nM
Substance: TMEGF56, fragment of thrombomodulin with the fifth and sixth EGF-like domains (domain or fragment)
